T1: tryptic fragment 515-790 of hFAN1_360 (human, UniProt Q9Y2M0 515-790)
T1 construct: human FAN1, protected tryptic fragment identified by mass spectrometry as amino acids 515-790; The three fragments are said to correspond broadly to the SAP, TPR and VRR-Nuc homology regions; also called amino acids 515–790; source: limited tryptic proteolysis of purified hFAN1_360 (from E. coli)
T1 sequence (looked up): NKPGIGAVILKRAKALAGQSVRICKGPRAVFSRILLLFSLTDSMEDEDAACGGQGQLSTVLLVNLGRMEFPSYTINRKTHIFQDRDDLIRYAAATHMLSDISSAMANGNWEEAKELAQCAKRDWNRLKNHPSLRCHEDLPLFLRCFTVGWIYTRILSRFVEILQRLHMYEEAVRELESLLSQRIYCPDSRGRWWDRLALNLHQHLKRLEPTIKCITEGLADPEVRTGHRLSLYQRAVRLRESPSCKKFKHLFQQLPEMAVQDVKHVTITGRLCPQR

B1: psNUC, VRR-Nuc single-domain protein of Psychrobacter (enzyme)
chain: RLKGLTEDEVQTVVMNWSKRQKFKGRPLFDYIHHSPNGGKRAAKIGSSGKRYSPEAAKFKRMGVKAGYPDLIIDIARGAYHGLRIEIKKDGNSYATPAQKERIEMLAKEGYCAVVAKGIDNVISVIQQYIKLGDFDGVSQLTADK
notes: psNUC, standalone VRR-Nuc domain protein of Psychrobacter, UniProt A5WF35; Synthetic gene (GeneART) in pGEX 6P-1; The structure was solved by SAD on a selenomethionine derivative; source: E. coli, purified (glutathione-Sepharose, 3C protease cleavage, Superdex gel filtration)
B2: tryptic fragment 360-507 of hFAN1_360 (domain or fragment, human, UniProt Q9Y2M0 360-507, looked up)
chain: GSSCNGPGQTTGHPYYLRSFLVVLKTVLENEDDMLLFDEQEKGIVTKFYQLSATGQKLYVRLFQRKLSWIKMTKLEYEEIALDLTPVIEELTNAGFLQTESELQELSEVLELLSAPELKSLAKTFHLVNPNGQKQQLVDAFLKLAKQR
notes: human FAN1, protected tryptic fragment identified by mass spectrometry as amino acids 360-507; The three fragments are said to correspond broadly to the SAP, TPR and VRR-Nuc homology regions; also called amino acids 360–507; source: limited tryptic proteolysis of purified hFAN1_360 (from E. coli)
B3: tryptic fragment 795-1,012 of hFAN1_360 (domain or fragment, human, UniProt Q9Y2M0 795-1012, looked up)
chain: SVFVMEAGEAADPTTVLCSVEELALAHYRRSGFDQGIHGEGSTFSTLYGLLLWDIIFMDGIPDVFRNACQAFPLDLCTDSFFTSRRPALEARLQLIHDAPEESLRAWVAATWHEQEGRVASLVSWDRFTSLQQAQDLVSCLGGPVLSGVCRHLAADFRHCRGGLPDLVVWNSQSRHFKLVEVKGPNDRLSHKQMIWLAELQKLGAEVEVCHVVAVGAK
notes: human FAN1, protected tryptic fragment identified by mass spectrometry as amino acids 795-1,012; The three fragments are said to correspond broadly to the SAP, TPR and VRR-Nuc homology regions; also called amino acids 795–1,012; source: limited tryptic proteolysis of purified hFAN1_360 (from E. coli)

Tests used:
[1] = tested on: psNUC; assay: EMSA; details: stoichiometric binding at 1 nM DNA; 'indicative of a subnanomolar' KD; EMSA: 1 nM radiolabelled DNA, 20 C, 30 min, binding buffer in Supplemental Information (composition and pH not in material); 2.5% Ficoll-400, 8% native PAGE in …
[2] = tested on: stNUC; assay: EMSA; details: EMSA: 1 nM radiolabelled DNA, 20 C, 30 min, binding buffer in Supplemental Information (composition and pH not in material); 2.5% Ficoll-400, 8% native PAGE in …
[3] = molecular target: stNUC, VRR-Nuc single-domain protein of Streptococcus equi bacteriophage P9 (Streptococcus equi bacteriophage P9); assay: AUC; sedimentation velocity, 50,000 rpm, 277 K, 50 mM Tris/HCl pH 8.0, 300 mM NaCl, 0.50 mM TCEP, interference optics, SEDFIT c(s) and c(M)
[4] = molecular target: saNUC, VRR-Nuc single-domain protein of Salmonella enteritidis typing phage 3 (Salmonella enteritidis typing phage 3); assay: as above
[5] = molecular target: the molecule itself; assay: AUC; sedimentation velocity as above, psNUC at concentrations above 70 uM; dimer to tetramer
[6] = molecular target: the molecule itself; assay: AUC; sedimentation velocity, 50,000 rpm, 277 K, 50 mM Tris/HCl pH 8.0, 300 mM NaCl, 0.50 mM TCEP, interference optics, SEDFIT c(s) and c(M)
[7] = molecular target: B3; assay: SEC; S200 gel filtration of a preparative scale tryptic digest of hFAN1_360; SDS-PAGE of fractions across the peak; details: both partners purified
[8] = molecular target: T1, tryptic fragment 515-790 of hFAN1_360; assay: as above; details: both partners purified

four-way DNA junction (HJ) showed a Kd [1] of less than 1 nM and a Kd [2] of 200 nM.

Work on “stNUC, VRR-Nuc single-domain protein of Streptococcus equi bacteriophage P9 (enzyme)” yielded a stoichiometry N [3] of 2.

In the case of “saNUC, VRR-Nuc single-domain protein of Salmonella enteritidis typing phage 3 (enzyme)”, the stoichiometry N [4] is reported as 2.

In the case of B1, the “stoichiometry N” value [5] is reported as 4 and the “stoichiometry N” value [6] is reported as 2.

B2: binds [7]; binds [8].

B3: binds [8].

From article PMC4103454, “FAN1 Activity on Asymmetric Repair Intermediates Is Mediated by an Atypical Monomeric Virus-type Replication-Repair Nuclease Domain” (Cell Reports, 2014)
